Test: label from the status in PepcDB records
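Further: failed if final PepcDB status was selected cloned or expressed and not failed if soluble or beyond.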

Sequence	protein production
MTTRTRNLYILMLANLLMSASMTMIMPFLSLYIETFGDYSNAYVQRWAGYIFGVTFLIAFIFSPIWGRIGDKHGYKGILILTSVGLSICIFLMGFAHSVTYLLILRIFMGVVTGFIGVSNAFIARQTPRNEAGKVLGTLQLGGVTGMLFGPLIGGAMADLFGFKDTFTITGIAMMVAALIVAFGVKEIRTEEQKEAAKVVYSRRAVLKQIFTLRVLFTVMVITALIQIANFSVQPLLALYVGDMTQSDNIAFLSGLAFSATGFGNLVMTRKWGQLGDKYGYEKILNILLIMAAVFVIPQAFATNLWVFIFFRFLFGIAIGGMVPCTTAYIRLAAPGVMQGEMLGYNQSARFLGNVIGPILGGTLAGFTGIPSVFLFMSFMFLVAFFILLYALRSDRKRHVNVD	failed
MENWFRADTWFGRLVDVGNTFIWTYVLIALLLGLGLYFTFVSRFVQFRLLGEMGRLLVEGMNRKAFKERKGTSSFQAFAISTAARVGTGNLAGVAVAISLGGPGAIFWMWIIALIGAATGFIESTLAQIYKVKDKDGFRGGPAYYMEKALNARWAGILFAILITLCFGLIFNAVQTHTIADAFVGAYDLNPFFIGLIIAFVMAFIVFGGIRRIAVIAEVIVPTFAIAYVLIALVIVLLNITQVPSVIGLIVGNAFGIQEVVGGGFGAAIMHGIRRGLFSNEAGMGSAPNAAATAHVSHPVKQGLVQSLSVLTDTLIICSATAFLILLTDVYTVGEMGGIQLTQEALTVHIGEWSMTFVTIAISFFAFSSLLGNYYYGEANIQFISQNRALLTVFRLAFLAMILIGATSELQIIWEMADLIMGAMAIVNLIAIALLAKIAVQALTDYQHQRKQGIDPVFYKNSLPDLKNIEAWDEKPVKEKN	failed
MKLLLVGEVRDGRVTAETAELFGFAACFSAEVSMVLAGSTDDLPSFEGKLYRADGVNAFDLACHKRLVLAAVEREQPDAVVFLHSSHGWELAPRVAFAMQSAQVSGVVGLDDGGYVVESCNGKMRRTVKPLTDRVVLTLQLGAFDAPAMAGIPEVTALDVEPDSTIEFLDCVQPERGIDLTRAGVIVSAGRGVGSAERVELVRALADALGGEVGASRPVVDAGWLERARQVGSSGQSVSPALYVACGISGAIQHLAGMKGSGFVLAINTDRDTPITSVADVLAVADVAEFLSALTAAIRARR	failed
FYTPKAVVQLVVELIDPRPGHSVYDPTCGSGGMLVESAHHVSGLPDGTLMGKPNVLLYGQEKNLGTWAIAKLNLYLHNMHASIERGDTLVEPKHLDGDYLKTFDRVIANPPFSAKSWWTPLELSNENEQENGKKVKAPNYKQVSDPYGRLVYGVPPRGYADLAFAQHMLASLKADGRMGVILPHGVLFRSGEEGKIREGLLFGTGAASGNQPGDVIEAIVGLPSALFYNTGIPACVLILNKQKPSALKDKVIIIDGSRDYLEGKAQNSLHAEDILRIVSTH	failed
AEPVLGDDGLYQLDWYLQSFLDLKEDLEGATAKGKRFAILWGLKGCPYCKKLHDVHMRDPAIESYIRDNFEIVHLNHIGAREVTDFDGSKLSEKAFAQAYGIRFTPSLQFFPESADGLAAKKPQDREVARMPGLLEPPEFLAMFKYVREKGYQSM	failed
MSKRWLYSLQLIFFITLVFVLVTGCYSHPNQNIQSANSKPVTSECRIIKHPLGETCIPLHPQRIIAMDEDILEILVALDLKPIAVAINFDEWSSREKQLWQKAEGIDSIVIGNHGILNLEKMLLLKPDLILGLAESTDRKSYELFSQIAPTVTVDYAQTAWRDVLLRVGNIIGKTEQAQKLIAEFQQRIEKLRVIVKNKLGKTKISVVRVYNYFHKTIEFRSNFSFPGSLLVELGLSFPEKQNQIPTSPGFPFVFASLERLDLLDADVMFVTLDAGGEENFKKFQASPLWQKLKAVKNNCVYTVDSGYWIFGNIMSANAILDDLDKYLLQQCR	failed
MEEPEFQAYVGPRPFEQEDKFIFFGRDREARDLLSLVIAHNLVLVYAQSGAGKTSLINAGLIPLLKENRFEVFPVARVKGTPLRNIKTDEISNIYVLNTLTSWAEDEYDVERLTKMKLVDFLNEQERLQDEDGIPLPRAVIFDQFEEIFSLYQDRWKDREGFFEQISAALETDPLLRVVFVIREDFIAQLDPYVELLPERLRTRFHIERLRREAALLAIKEPLRDTGRSFAEGVAEKLVDDLLKIRVETTPGETTEVTGEFIEAVQLQVVCQNLWRELPPDVKQITFHHLKTYGNVEQELYRFYEEAIRTAAATAHIDEESLRRLFGEVLITTMGTRGMVYRAQESTGGIPNTAIDVLESMHLIRAEWRAGARWYELTHDGFIKPILSSNRVFNDELAEKERAEKERIEKERIEKEWAEKEWAEKERLEKERAEKERLEKELRAEKELAESKQLFYKRLAAISFLAILLALVAVFEWHQAKENAEEARASDLNLNSALLQGDPRNLDKSVLLAIESLKIHITSTADHLIRQGLLSMPHRVVILKHYSDVNNVVFSPDGKYVATASNDNTSRLWDVSTGKQIFVLNHTDPVRNVVFSPDGKYVATASADKTAGVWNTTTGEGISVLNHTGRVNNVVFSPDGKYIATASDDNTSRLWDTATGKQIFVLNQTDPVRNVVFSPDGKYIATASADNTSRLWDTTTGKQIFDMKHDGPVNIVVFSPDGKYVATASADKKARLWNATTGKKIFDMKHDSGINTVVFSPDGKYIVTASDDKTAGVWNTTTGKKIFDMKHDGSVNTVVFSPDGKYIATASADNTSRLWDTATGEKIFFLNHYGWVNTVVFSPDGKYVATASADKTAHLWDVSTGKQISYLRHDSGVNNVVFGPDGKYVVTASADKTADVWNTTTGEKIFVLNHTGRVNNAVFSPDGKYIATASADNTSRLWDTTTGKQIFVLNQTDPVRNVVFSPDRKYIATASDDNTSRLWDTATGKQILVLNHDGPVNTVVFSSDGKYIATASDDNTSRLWDTATGEEIFVLNHTDRVNNVVFSPDGKYIATAGDDNTSRLWGTATGEKIFDMKHDGPVNNVVFSPDGKYVATAGYDNTACLWDTATGEKIFVLNHAGRVNTVVFSPDGKYIATASADKARLWNATTGKQISYLRHDSGVNNVVFSPDGKYIATASVDKTARLWTAKLWISDTEDLIDEANNRLTRNLKPEEWKEYMGDKPYHKRFPNLP	failed
AIAEAKTLGIATPRKPVLSVSARKLKDNAADWHNLILKWDSLSDKGFTTASSIANLKVSLLSKEKVELESSSPASMEEEEKTNLDYDKGLEALCEELQAILDGLTKIQMKMEKLSSTTKGICELENYHYREESSRPPLFHTWPTAFFYEVSRRLSEAYKKELLLKHTIGAELAHTADRNLSLTYLSMWLHQPYIESNSKLQLESMLLETGHRAL	failed
SCNETGMLERLPLCGKAFADMMGKVDVWKWCNLSEFIVYYESFTNCTEMEANVVGCYWPNPLAQGFITGIHRQFFSNCTVDRVHLEDPPDEVLIPLIVIPVVLTVAMAGLVVWRSKRTDTLL	not failed
DTVANASGPLMVEIVKTPGSALGISLTTTSLRNKSVITIDRIKPASVVDRSGALHPGDHILSIDGTSMEHCSLLEATKLLASISEKVRLEILPVPQSQRPLRPS	not failed
MQGKKFISPGAWFSMNYPSDWNEFEDGEGSFLFYNPDVWTGNFRISAFKGNASYGKDAIRQELKENDSASLVKIGTWDCAYSKEMFQEEGTYYTSHLWITGTGNIAFECSFTVPKGGSAKEAEEVIATLEARKEGEKYPAELIPVRLSEIYQINEGYEWVVSTVKQELKKDFQGVEEDLEKIQQVIDSGKISPKKKDEWLAIGITVCAILTNEVEGMEWKTLIDGNREVPVLEYQGRTIDPMKIAWSKVKAGQPCNIAEAYQSAIDHH	not failed
MTTPGKLNKARVPPYKTAGLGLVLVFALVVALVYLQFRGEFTPKTQLTMLSARAGLVMDPGSKVTYNGVEIGRVDTISEVTRDGESAAKFILDVDPRYIHLIPANVNADIKATTVFGGKYVSLTTPKNPTKRRITPKDVIDVRSVTTEINTLFQTLTSIAEKVDPVKLNLTLSAAAEALTGLGDKFGESIVNANTVLDDLNSRMPQSRHDIQQLAALGDVYADAAPDLFDFLDSSVTTARTINAQQAELDSALLAAAGFGNTTADVFDRGGPYLQRGVADLVPTATLLDTYSPELFCTIRNFYDADPLAKAAAGGGNGYSLRTNSEILSGIGISLLSPLALATNGAAIGIGLVAGLIASPLAVAANLAGALPGIVGGAPNPYTYPENLPRVNARGGPGGAPGCWQPITRDLWPAPYLVMDTGASLAPYNHMEVGSPYAVEYVWGRQVGDNTINP	failed
